Laboratory results from patent US20040136982A1.

Tests used:
FLAG-sBST2-GST (human) [1] = target: FLAG-sBST2-GST (human) (UniProt Q10589); assay: ELISA, plate coated with FLAG-sBST2-GST, control IgG1 (κ)
FLAG-sBST2-GST (human) [2] = target: FLAG-sBST2-GST (human) (UniProt Q10589); assay: ELISA, plate coated with FLAG-sBST2-GST, control IgG4 (κ)

Sequence of FLAG-sBST2-GST (human) (Q10589 other isoform, or with tags, fused parts or gaps): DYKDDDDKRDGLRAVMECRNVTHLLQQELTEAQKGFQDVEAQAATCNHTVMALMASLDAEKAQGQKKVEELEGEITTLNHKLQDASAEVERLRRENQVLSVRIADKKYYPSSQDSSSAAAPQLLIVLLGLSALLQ

| A450 nm/A570 nm (FLAG-sBST2-GST (human) [1]) [absorbance] | A450 nm/A570 nm (FLAG-sBST2-GST (human) [2]) [absorbance] | Substance |
| --- | --- | --- |
| 0.014 | – | Control IgG1 (κ) (antibody) |
| – | 0.013 | Control IgG4 (κ) (antibody) |
